Test results: patent US9339557B2, “Photosensitizer-metal nanoparticle complex and composition containing the complex for photodynamic therapy or diagnosis” (NATIONAL CANCER CENTER, priority 2009, dated 2016)

Legend:
Type in all cases: cell-based, human
[1] = tested on: HT1080 cells; experiment: Cell viability after photodynamic therapy (MTT), cell line HT1080; conditions: 5 μM equivalent of photosensitizer, 15 hours, +PDT laser 670 nm, 40 mW/cm^2, 10 J/cm^2, MTT after 24 hours
Description: For in vitro phototoxicity tests 9,000 HT1080 cells were seeded in each well of 96-well plates. The next day, the photosensitizer-polypeptide conjugate (MMP2P) prepared in Preparation Example 2 and the photosensitizer-metal nanoparticle complex (MMP2P-GNR) prepared in Preparation Example 3 were diluted with a cell culture medium, respectively, thereby preparing an MMP2 probe (MMP2P) solution and a photosensitizer-metal nanoparticle complex (MMP2P-GNR) solution, each of which has a final concentration corresponding to 5 μM equivalent weight of the photosensitizer. Each solution was added at 200 μl per well to some wells, and the plate was maintained at 37° C. for 15 hours. Meanwhile, for the control group, the same volume of a fresh culture medium in which the photosensitizer is not included was added to the other wells. Afterwards, the cells were washed twice with a cell culture medium, and for a photodynamic therapy (PDT) group, photodynamic therapy was carried out using laser at 670 nm under conditions including a dose density of 40 mW/cm^2 and a dose of 10 J/cm^2. After 24 hours, cell viability was measured by MTT analysis.

[2] = tested on: HT1080 cells overexpressing MMP2; experiment: Fluorescence activation of photosensitizer-metal nanoparticle complex, confocal microscopy; conditions: HT1080 (MMP2 overexpressing) compared with BT20 (MMP2 underexpressing); 5 μM equivalent of photosensitizer, 15 hours, 37° C.; Ex. 405 nm, Em. 646-753 nm
Description: HT1080 cells (human fibrosarcoma cell line) overexpressing MMP2 and BT20 cells (human mammary adenocarcinoma cell line) underexpressing MMP2 (see Bremer C. et al., Nature Medicine 7(6) 743-748, 2001) were obtained from ATCC (Manassas, Va.). MMP2-positive HT1080 (90,000 cells) and MMP2-negative BT20 cells (90,000 cells) in culture media were seeded into each wells of LabTek II Chambered Coverglass. Afterwards, the photosensitizer-metal nanoparticle complex solution prepared in Preparation Example 2 was diluted with a culture medium to have 5 μM equivalent weight of the photosensitizer, and added at 600 μl per well. The cells were incubated in an incubator at 37° C. for 15 hours. After the culture medium including the complex was removed, and the cells were washed three times with a fresh culture medium, fluorescence was observed using a confocal microscope (Ex. 405 nm, Em. 646-753 nm).

[3] = tested on: BT20 cells; experiment: Cell viability after photodynamic therapy (MTT), cell line BT20; conditions: 5 μM equivalent of photosensitizer, 15 hours, +PDT laser 670 nm, 40 mW/cm^2, 10 J/cm^2, MTT after 24 hours
Description: 9,000 BT20 cells were seeded in each well of 96-well plates. The next day, the photosensitizer-polypeptide conjugate prepared in Preparation Example 2 and the photosensitizer-metal nanoparticle complex prepared in Preparation Example 2 were diluted with a cell culture medium, thereby preparing an MMP2 probe (MMP2P) solution and a photosensitizer-metal nanoparticle complex (MMP2P-GNR) solution, which have a final concentration corresponding to 5 μM equivalent weight of the photosensitizer. Each solution was added at 200 μl per well to some wells, and the plate was maintained at 37° C. for 15 hours. Meanwhile, for the control group, the same volume of a fresh culture medium in which the photosensitizer was not included was added. Afterwards, the cells were washed twice with a cell culture medium, and for a photodynamic therapy (PDT) group, photodynamic therapy was performed using laser at 670 nm under conditions including a light dose density of 40 mW/cm^2, and a light dose of 10 J/cm^2. After 24 hours, cell viability was measured by MTT analysis.

Substance: MMP2P-GNR (CGGPLGVRGK)
- cell viability [1]: 16%
- fluorescence in cells [2]: much stronger fluorescence
- cell viability [3]: 63%
